Results reported in PMC4722456.

Molecular target: actin from chicken skeletal muscle (filamentous) (chicken) (UniProt P68139)

| Substance | Km for actin of the actin-activated Mg2+-ATPase (Michaelis-Menten fit) [µM] |
| --- | --- |
| Drosophila melanogaster indirect flight muscle myosin subfragment 1, wild type (domain or fragment) | 5.77 |
| Drosophila melanogaster indirect flight muscle myosin subfragment 1, converter mutant R759E (domain or fragment) | 4.99 |
| Drosophila melanogaster indirect flight muscle myosin subfragment 1, double mutant R759E/N509K (domain or fragment) | 3.58 |
